Assay results as given in article doi:10.1101/2021.02.13.431076.

Target: GOLD domain of human TMED1 (p24γ1), signal peptide-free (human) (UniProt Q13445)
Assay: SEC

stoichiometry N: 2
Substance: GOLD domain of human TMED1 (p24γ1), signal peptide-free (from UniProt Q13445 24-130) (domain or fragment)
